Experimental data reported in US20070128190A1 (GLENMARK PHARMACEUTICALS S A, published 2007).
Where two headings read alike, the source gives them in different places.

Legend:
[1] = target: human α2 integrin with endogenous hamster β1 on CHO cells (human; hamster); experiment: cell-based or functional assay
[2] = target: T1, human platelet α2β1 integrin (immobilized on microtiter plates) (human, UniProt P17301 30-1181; P05556 21-798); experiment: competition with Eu-TMC-2206 on human platelet α2β1-coated plate
T1 construct: plates custom-coated with human platelet α2β1 by GTI Inc; also called immobilized α2β1 integrin; α2β1-coated plates

[3] = target: T1, human platelet α2β1 integrin …; experiment: as above; remark: listed apart in the source

T1 sequence (P17301 30-1181 E534K limits assumed, chain 1 of 2): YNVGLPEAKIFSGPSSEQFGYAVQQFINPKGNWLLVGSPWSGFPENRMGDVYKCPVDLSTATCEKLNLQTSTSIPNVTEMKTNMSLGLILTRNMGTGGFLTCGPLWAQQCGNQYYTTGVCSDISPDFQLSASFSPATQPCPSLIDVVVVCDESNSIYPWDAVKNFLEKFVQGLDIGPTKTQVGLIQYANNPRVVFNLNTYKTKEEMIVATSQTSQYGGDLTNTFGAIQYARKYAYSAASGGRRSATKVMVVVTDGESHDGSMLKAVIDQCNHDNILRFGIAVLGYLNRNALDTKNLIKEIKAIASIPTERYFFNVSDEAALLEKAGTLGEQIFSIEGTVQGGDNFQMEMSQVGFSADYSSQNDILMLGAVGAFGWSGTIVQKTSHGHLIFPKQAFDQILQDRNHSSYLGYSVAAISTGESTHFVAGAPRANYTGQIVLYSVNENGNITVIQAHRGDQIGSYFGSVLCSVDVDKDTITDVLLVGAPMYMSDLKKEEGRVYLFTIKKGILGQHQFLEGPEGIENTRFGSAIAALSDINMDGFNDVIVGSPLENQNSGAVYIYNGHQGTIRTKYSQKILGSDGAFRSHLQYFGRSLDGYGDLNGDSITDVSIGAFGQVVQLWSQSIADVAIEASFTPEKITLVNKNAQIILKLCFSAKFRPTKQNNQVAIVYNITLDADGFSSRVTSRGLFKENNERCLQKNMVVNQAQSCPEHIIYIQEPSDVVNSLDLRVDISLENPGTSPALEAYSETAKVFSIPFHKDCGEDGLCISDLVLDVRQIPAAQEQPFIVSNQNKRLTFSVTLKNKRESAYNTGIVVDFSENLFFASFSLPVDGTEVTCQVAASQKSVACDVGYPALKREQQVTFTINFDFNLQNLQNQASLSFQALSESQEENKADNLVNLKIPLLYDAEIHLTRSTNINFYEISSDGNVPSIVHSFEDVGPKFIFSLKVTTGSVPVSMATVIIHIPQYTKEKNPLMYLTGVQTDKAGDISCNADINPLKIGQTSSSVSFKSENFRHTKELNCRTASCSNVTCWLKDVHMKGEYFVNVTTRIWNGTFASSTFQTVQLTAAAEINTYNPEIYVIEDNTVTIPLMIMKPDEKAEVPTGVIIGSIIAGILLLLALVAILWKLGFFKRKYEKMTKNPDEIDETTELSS
T1 sequence (P05556 21-798 limits assumed, chain 2 of 2): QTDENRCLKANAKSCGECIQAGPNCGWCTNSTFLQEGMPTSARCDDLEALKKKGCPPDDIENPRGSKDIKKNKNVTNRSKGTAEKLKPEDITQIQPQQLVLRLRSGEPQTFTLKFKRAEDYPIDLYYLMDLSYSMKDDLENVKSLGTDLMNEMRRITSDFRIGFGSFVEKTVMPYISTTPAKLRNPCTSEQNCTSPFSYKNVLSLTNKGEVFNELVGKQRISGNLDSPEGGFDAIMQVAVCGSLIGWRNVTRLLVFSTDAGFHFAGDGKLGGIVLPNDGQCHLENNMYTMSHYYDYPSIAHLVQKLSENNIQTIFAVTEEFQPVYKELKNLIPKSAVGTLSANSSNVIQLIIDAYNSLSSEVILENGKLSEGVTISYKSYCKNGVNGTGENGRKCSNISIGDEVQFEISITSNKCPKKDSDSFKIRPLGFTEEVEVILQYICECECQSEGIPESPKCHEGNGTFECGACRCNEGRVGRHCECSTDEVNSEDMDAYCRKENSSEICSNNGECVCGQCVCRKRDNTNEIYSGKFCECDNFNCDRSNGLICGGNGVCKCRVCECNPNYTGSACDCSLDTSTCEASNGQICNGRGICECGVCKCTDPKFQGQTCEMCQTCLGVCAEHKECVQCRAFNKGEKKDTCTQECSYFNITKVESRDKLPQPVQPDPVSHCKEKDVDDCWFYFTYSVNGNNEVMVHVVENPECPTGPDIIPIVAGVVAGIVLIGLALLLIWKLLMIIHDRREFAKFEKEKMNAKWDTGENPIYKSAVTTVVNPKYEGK
Sequence of human α2 integrin with endogenous hamster β1 on CHO cells (human; hamster) (P17301 30-1181 E534K): as the sequence (P17301 30-1181 E534K limits assumed, chain 1 of 2) above

B1: TMC-2206 (antibody, mouse IgG1, V domains shown)
VH: QVQLKESGPGLVAPSQSLSITCTVSGFSLTNYGIHWVRQPPGKGLEWLGVIWARGFTNYNSALMSRLIITKDNSQSQVFLKMNSLQPDDSATYFCARANDGVYYAMDYWGQGTSVTVSS
VL: QFVLTQSPAFLSASPGEKVTMTCSANSSVNYIHWYQQKSGTSPKKWIYDTSKLASGVPVRFSGSGSGTSYSLTISSMETEDAATYYCQQWTTNPLTFGAGTRVELK
notes: murine IgG1/κ secreted by hybridoma BHA2.1; labelled with Eu-N1-ITC where used as tracer; also called BHA2.1
EC50 (nM), cell adhesion to collagen assay [1]: 1.03 nM | Ki [2]: 0.28 nM | Ki [3]: 0.22 nM
